From publication PMC5137450 come the findings set out here.

Holding throughout (test): filter binding
In series [1] the target is T1, MBNL3 (human, UniProt Q9NUK0 1-257).
T1 sequence: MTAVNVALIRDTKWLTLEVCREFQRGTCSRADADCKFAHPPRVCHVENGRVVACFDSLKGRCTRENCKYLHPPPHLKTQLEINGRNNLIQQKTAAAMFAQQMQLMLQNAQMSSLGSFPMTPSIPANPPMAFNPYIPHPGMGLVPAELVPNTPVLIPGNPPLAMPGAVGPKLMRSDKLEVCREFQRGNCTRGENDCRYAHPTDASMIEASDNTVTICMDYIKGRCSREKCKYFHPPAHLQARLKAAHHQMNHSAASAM

For series [2], the target named is T2, MBNL1 (UniProt Q9NR56 1-260).
T2 sequence: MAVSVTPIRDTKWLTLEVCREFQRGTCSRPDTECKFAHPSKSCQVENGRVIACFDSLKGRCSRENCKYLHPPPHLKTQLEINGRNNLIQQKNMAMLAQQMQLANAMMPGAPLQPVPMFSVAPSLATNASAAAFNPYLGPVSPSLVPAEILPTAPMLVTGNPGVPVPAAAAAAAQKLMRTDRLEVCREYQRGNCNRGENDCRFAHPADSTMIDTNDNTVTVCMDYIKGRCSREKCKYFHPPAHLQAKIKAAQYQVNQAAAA

Series [3] concerns the target T3, MBNL2 (human, UniProt Q5VZF2 1-268).
T3 sequence: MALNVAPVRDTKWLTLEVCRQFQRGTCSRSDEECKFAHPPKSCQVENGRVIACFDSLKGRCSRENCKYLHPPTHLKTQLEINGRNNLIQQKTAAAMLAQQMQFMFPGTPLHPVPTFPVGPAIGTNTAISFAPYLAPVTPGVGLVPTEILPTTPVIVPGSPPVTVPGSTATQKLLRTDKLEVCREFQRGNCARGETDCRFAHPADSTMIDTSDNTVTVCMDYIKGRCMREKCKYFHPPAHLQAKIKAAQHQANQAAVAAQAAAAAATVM

In series [4] the target is T1, MBNL3. The source holds these as a separate data set.
For series [5], the target named is T2, MBNL1. This is another data set of the same source.
In series [6] the target is T3, MBNL2. The source holds these as a separate data set.

B1: (CUG)20 (structured_RNA)
RNA: CUGCUGCUGCUGCUGCUGCUGCUGCUGCUGCUGCUGCUGCUGCUGCUGCUGCUGCUGCUG
The term Kd denotes the concentration at which binding is half-saturated. Low values mean tighter binding, high ones weaker binding. As for B1, the Kd in the series with MBNL3 [1], with MBNL1 [2] and with MBNL2 [3] was around 7.75 nM throughout.

B2: Atp2a1 intron 22 RNA (145 nt) (structured_RNA)
RNA: GGGCACCCCUGCGGUCACUUGCGCGCGCUCGCAGCUCUCCCUGGAGCCACUGCUGCUGUUGCCACUGCCCGCUUCCACAUGAGGGCCAUGCCGUUACUGUGGGCACUGGCAGCUGUGAGGCUGUGUCCUGGCCGUCCAGUCUGCU
In the case of B2, the binding result with MBNL3 [4], in the series with MBNL1 [5] and with MBNL2 [6] was “binds” each time.
